From publication PMC5024437 come the findings set out here.

The experiment concerns the target T1, mSos1 (human (endogenous in A549)), Q07889.
T1 chain: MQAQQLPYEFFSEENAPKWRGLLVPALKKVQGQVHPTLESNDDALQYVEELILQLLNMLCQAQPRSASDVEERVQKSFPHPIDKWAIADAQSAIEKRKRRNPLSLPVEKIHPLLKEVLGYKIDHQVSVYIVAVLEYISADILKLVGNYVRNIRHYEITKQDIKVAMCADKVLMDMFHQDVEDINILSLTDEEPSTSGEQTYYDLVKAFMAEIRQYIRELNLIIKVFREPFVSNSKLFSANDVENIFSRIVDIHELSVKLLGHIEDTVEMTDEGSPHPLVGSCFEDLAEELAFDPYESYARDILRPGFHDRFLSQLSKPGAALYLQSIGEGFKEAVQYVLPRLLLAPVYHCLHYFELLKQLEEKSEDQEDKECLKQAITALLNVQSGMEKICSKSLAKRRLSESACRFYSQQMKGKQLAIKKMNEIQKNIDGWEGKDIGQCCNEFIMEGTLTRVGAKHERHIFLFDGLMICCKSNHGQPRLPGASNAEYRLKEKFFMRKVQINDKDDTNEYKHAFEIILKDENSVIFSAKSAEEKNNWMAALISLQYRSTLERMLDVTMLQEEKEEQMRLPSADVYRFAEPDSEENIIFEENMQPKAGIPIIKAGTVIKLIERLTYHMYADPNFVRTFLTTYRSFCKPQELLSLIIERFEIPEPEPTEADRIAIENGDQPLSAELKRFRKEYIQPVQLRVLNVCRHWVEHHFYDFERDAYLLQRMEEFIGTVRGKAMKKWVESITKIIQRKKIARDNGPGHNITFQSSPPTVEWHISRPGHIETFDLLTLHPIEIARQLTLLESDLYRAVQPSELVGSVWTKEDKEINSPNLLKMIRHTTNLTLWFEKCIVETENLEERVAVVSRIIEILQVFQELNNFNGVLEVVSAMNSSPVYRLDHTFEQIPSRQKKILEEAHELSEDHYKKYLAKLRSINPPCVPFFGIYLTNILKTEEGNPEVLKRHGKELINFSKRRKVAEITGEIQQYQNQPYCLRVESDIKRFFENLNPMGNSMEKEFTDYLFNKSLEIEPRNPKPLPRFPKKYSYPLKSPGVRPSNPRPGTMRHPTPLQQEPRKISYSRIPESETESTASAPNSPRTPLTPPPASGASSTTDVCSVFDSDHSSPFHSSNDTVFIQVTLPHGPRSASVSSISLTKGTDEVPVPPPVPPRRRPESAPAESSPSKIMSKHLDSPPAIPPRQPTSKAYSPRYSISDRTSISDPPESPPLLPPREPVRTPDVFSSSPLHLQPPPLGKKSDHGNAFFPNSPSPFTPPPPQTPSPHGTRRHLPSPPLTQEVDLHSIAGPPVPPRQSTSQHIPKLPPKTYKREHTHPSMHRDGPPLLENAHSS
Description: co-IP; A549 and A549 + ITSN-1s (stable myc-ITSN-1s) cell lysates, 500 ug total protein, lysis buffer 50 mM Tris-HCl pH 8.0, 150 mM NaCl, 1 % NP-40; IP with 3 ug mSos1 or Cbl Ab and protein A/G, WB with Rac1 or Eps8 Ab; densitometry as percentage of control. The note with it: remark: other sources report otherwise.

B1: Eps8, Q12929 1-822 (natural protein)
chain: MNGHISNHPSSFGMYPSQMNGYGSSPTFSQTDREHGSKTSAKALYEQRKNYARDSVSSVSDISQYRVEHLTTFVLDRKDAMITVDDGIRKLKLLDAKGKVWTQDMILQVDDRAVSLIDLESKNELENFPLNTIQHCQAVMHSCSYDSVLALVCKEPTQNKPDLHLFQCDEVKANLISEDIESAISDSKGGKQKRRPDALRMISNADPSIPPPPRAPAPAPPGTVTQVDVRSRVAAWSAWAADQGDFEKPRQYHEQEETPEMMAARIDRDVQILNHILDDIEFFITKLQKAAEAFSELSKRKKNKKGKRKGPGEGVLTLRAKPPPPDEFLDCFQKFKHGFNLLAKLKSHIQNPSAADLVHFLFTPLNMVVQATGGPELASSVLSPLLNKDTIDFLNYTVNGDERQLWMSLGGTWMKARAEWPKEQFIPPYVPRFRNGWEPPMLNFMGATMEQDLYQLAESVANVAEHQRKQEIKRLSTEHSSVSEYHPADGYAFSSNIYTRGSHLDQGEAAVAFKPTSNRHIDRNYEPLKTQPKKYAKSKYDFVARNNSELSVLKDDILEILDDRKQWWKVRNASGDSGFVPNNILDIVRPPESGLGRADPPYTHTIQKQRMEYGPRPADTPPAPSPPPTPAPVPVPLPPSTPAPVPVSKVPANITRQNSSSSDSGGSIVRDSQRHKQLPVDRRKSQMEEVQDELIHRLTIGRSAAQKKFHVPRQNVPVINITYDSTPEDVKTWLQSKGFNPVTVNSLGVLNGAQLFSLNKDELRTVCPEGARVYSQITVQKAALEDSSGSSELQEIMRRRQEKISAAASDSGVESFDEGSSH
As to B1, the percent decrease of the co-precipitated complex in A549 + ITSN-1s cells against A549 cells stood at 54%.
